Patent US20170355730A1
Starred links: 1 amine or outer side, 2 acyl side, 3 side chain; linkers in the order of their positions; H or OH if unused. Non-standard residues stand in square brackets, D forms with d. Primed or numbered codes have the meaning given here. No end group written: not given here. Trimesoyl = O=C(c1cc(C(=O)[*:2])cc(C(=O)[*:3])c1)[*:1]; dPhe(4-CN) = N#Cc1ccc(C[C@@H](N)C(=O)O)cc1; d(pT) = C[C@H](OP(=O)(O)O)[C@@H](N)C(=O)O; Phe(4-F) = N[C@@H](Cc1ccc(F)cc1)C(=O)O; 2Nal = N[C@@H](Cc1ccc2ccccc2c1)C(=O)O; Pip′ = L-homoproline (pipecolyl); D‑4‑Phe = not defined here; Pip = O=C(O)[C@@H]1CCCCN1; d4Phe = not defined here; Dap = NC[C@H](N)C(=O)O; βAla = NCCC(=O)O; Sar = CNCC(=O)O

B1: peptide 45 (Table 18) (peptide)
peptide: Trimesoyl-[dF][Phe(4-F)][dT][Pip′][2Nal]RA[dF][Dap][dR]R[dR]R[2Nal][dF][Dap]K
modifications: linker (positions not given here) via Trimesoyl; not fully specified (C-terminus, bridges); printed as bicyclo[Tm-(D-Phe-Fpa-D-Thr-Pip-Nal-Arg-Ala-D-Phe)-Dap-(D-Arg-Arg-D-Arg-Arg-Nal-D-Phe-Dap)]-Lys
B2: peptide 39 (Table 18) (peptide)
peptide: Trimesoyl-[D‑4‑Phe][Phe(4-F)][dI][Pip′][2Nal]RA[dF][Dap]F[2Nal]RRRR[Dap]K
modifications: linker (positions not given here) via Trimesoyl; not fully specified (C-terminus, bridges); printed as bicyclo[Tm-(D-4-Phe-Fpa-D-Ile-Pip-Nal-Arg-Ala-D-Phe)-Dap-(Phe-Nal-Arg-Arg-Arg-Arg-Dap)]-Lys; reading uncertain
B3: peptide 41 (Table 18) (peptide)
peptide: Trimesoyl-[d4Phe][Phe(4-F)][dhGlu][Pip][2Nal]RA[dF][Dap]F[2Nal]RRRR[Dap]K
modifications: linker (positions not given here) via Trimesoyl; not fully specified (bridges); printed as bicyclo[Tm-(D-4-Phe-Fpa-D-homoGlu-Pip-Nal-Arg-Ala-D-Phe)-Dap-(Phe-Nal-Arg-Arg-Arg-Arg-Dap)]-Lys; reading uncertain
B4: peptide 15 (Table 18) (peptide)
peptide: Trimesoyl-P[Sar][dD][Pip′][2Nal]R[βAla][βAla][Dap]F[2Nal]RRRR[Dap]K-NH2
modifications: linker (positions not given here) via Trimesoyl; not fully specified (some residues, bridges); printed as bicyclo[Tm-(Pro-Sar-D-Asp-Pip-Nal-Arg-β-Ala-β-Ala)-Dap-(Phe-Nal-Arg-Arg-Arg-Arg-Dap)]-Lys
B5: peptide 18 (Table 18) (peptide)
peptide: Trimesoyl-P[Sar][dD][Pip′][2Nal]RV[dA][Dap]F[2Nal]RRRR[Dap]K-NH2
modifications: linker (positions not given here) via Trimesoyl; not fully specified (some residues, bridges); printed as bicyclo[Tm-(Pro-Sar-D-Asp-Pip-Nal-Arg-Val-D-Ala)-Dap-(Phe-Nal-Arg-Arg-Arg-Arg-Dap)]-Lys
B6: peptide 42 (Table 18) (peptide)
peptide: Trimesoyl-[dF][Phe(4-F)][dT][Pip′][2Nal]RA[dF][Dap]RRRR[2Nal]F[Dap]K
modifications: linker (positions not given here) via Trimesoyl; not fully specified (C-terminus, bridges); printed as bicyclo[Tm-(D-Phe-Fpa-D-Thr-Pip-Nal-Arg-Ala-D-Phe)-Dap-(Arg-Arg-Arg-Arg-Nal-Phe-Dap)]-Lys
B7: peptide 12 (Table 18) (peptide)
peptide: Trimesoyl-[dF][Phe(4-F)][dT][Pip′][2Nal]R[Dap]F[2Nal]RRRR[Dap]K-NH2
modifications: linker (positions not given here) via Trimesoyl; not fully specified (some residues, bridges); printed as bicyclo[Tm-(D-Phe-Fpa-D-Thr-Pip-Nal-Arg)-Dap-(Phe-Nal-Arg-Arg-Arg-Arg-Dap)]-Lys
B8: peptide 10 (Table 18) (peptide)
peptide: Trimesoyl-P[Sar][dD][Pip′][2Nal]R[Dap]F[2Nal]RRRR[Dap]K-NH2
modifications: linker (positions not given here) via Trimesoyl; not fully specified (some residues, bridges); printed as bicyclo[Tm-(Pro-Sar-D-Asp-Pip-Nal-Arg)-Dap-(Phe-Nal-Arg-Arg-Arg-Arg-Dap)]-Lys
B9: peptide 17 (Table 18) (peptide)
peptide: Trimesoyl-P[Sar][dD][Pip′][2Nal]RY[dA][Dap]F[2Nal]RRRR[Dap]K-NH2
modifications: linker (positions not given here) via Trimesoyl; not fully specified (some residues, bridges); printed as bicyclo[Tm-(Pro-Sar-D-Asp-Pip-Nal-Arg-Tyr-D-Ala)-Dap-(Phe-Nal-Arg-Arg-Arg-Arg-Dap)]-Lys
B10: peptide 27 (Table 18) (peptide)
peptide: Trimesoyl-[dF][Phe(4-F)][dT][Pip′][2Nal]RA[dF][Dap]F[2Nal]RRRR[Dap]K-NH2
modifications: linker (positions not given here) via Trimesoyl; not fully specified (some residues, bridges); printed as bicyclo[Tm-(D-Phe-4-Fpa-D-Thr-Pip-Nal-Arg-Ala-D-Phe)-Dap-(Phe-Nal-Arg-Arg-Arg-Arg-Dap)]-Lys
B11: peptide 22 (Table 18) (peptide)
peptide: Trimesoyl-P[Sar][dD][Pip′][2Nal]RR[dF][Dap]F[2Nal]RRRR[Dap]K-NH2
modifications: linker (positions not given here) via Trimesoyl; not fully specified (some residues, bridges); printed as bicyclo[Tm-(Pro-Sar-D-Asp-Pip-Nal-Arg-Arg-D-Phe)-Dap-(Phe-Nal-Arg-Arg-Arg-Arg-Dap)]-Lys
B12: peptide 38 (Table 18) (peptide)
peptide: Trimesoyl-[dPhe(4-CN)][Phe(4-F)][dT][Pip′][2Nal]RA[dF][Dap]F[2Nal]RRRR[Dap]K
modifications: linker (positions not given here) via Trimesoyl; not fully specified (C-terminus, bridges); printed as bicyclo[Tm-(D-4-CyanoPhe-Fpa-D-Thr-Pip-Nal-Arg-Ala-D-Phe)-Dap-(Phe-Nal-Arg-Arg-Arg-Arg-Dap)]-Lys
B13: peptide 35 (Table 18) (peptide)
peptide: Trimesoyl-[D‑2‑Fpa][Phe(4-F)][dT][Pip′][2Nal]RA[dF][Dap]F[2Nal]RRRR[Dap]K
modifications: linker (positions not given here) via Trimesoyl; not fully specified (C-terminus, bridges); printed as bicyclo[Tm-(D-2-Fpa-Fpa-D-Thr-Pip-Nal-Arg-Ala-D-Phe)-Dap-(Phe-Nal-Arg-Arg-Arg-Arg-Dap)]-Lys
B14: peptide 43 (Table 18) (peptide)
peptide: Trimesoyl-[dF][Phe(4-F)][dT][Pip′][2Nal]RA[dF][Dap]RR[2Nal]FRR[Dap]K
modifications: linker (positions not given here) via Trimesoyl; not fully specified (C-terminus, bridges); printed as bicyclo[Tm-(D-Phe-Fpa-D-Thr-Pip-Nal-Arg-Ala-D-Phe)-Dap-(Arg-Arg-Nal-Phe-Arg-Arg-Dap)]-Lys
B15: peptide 44 (Table 18) (peptide)
peptide: Trimesoyl-[dF][Phe(4-F)][dT][Pip′][2Nal]RA[dF][Dap]R[2Nal]RFRR[Dap]K
modifications: linker (positions not given here) via Trimesoyl; not fully specified (C-terminus, bridges); printed as bicyclo[Tm-(D-Phe-Fpa-D-Thr-Pip-Nal-Arg-Ala-D-Phe)-Dap-(Arg-Nal-Arg-Phe-Arg-Arg-Dap)]-Lys
B16: peptide 46 (Table 18) (peptide)
peptide: [dA][Sar][d(pT)][Pip′][2Nal]YQK
modifications: lactam (positions not given here); not fully specified (C-terminus, bridges); printed as cyclo(D-Ala-Sar-D-pThr-Pip-Nal-Tyr-Gln)-Lys
B17: peptide 16 (Table 18) (peptide)
peptide: Trimesoyl-P[Sar][dD][Pip′][2Nal]RA[dA][dA][Dap]F[2Nal]RRRR[Dap]K-NH2
modifications: linker (positions not given here) via Trimesoyl; not fully specified (some residues, bridges); printed as bicyclo[Tm-(Pro-Sar-D-Asp-Pip-Nal-Arg-Ala-D-Ala-D-Ala)-Dap-(Phe-Nal-Arg-Arg-Arg-Arg-Dap)]-Lys
B18: peptide 11 (Table 18) (peptide)
peptide: Trimesoyl-[dF][Phe(4-F)][dT][Pip][2Nal]RA[Dap]F[2Nal]RRRR[Dap]K
modifications: linker (positions not given here) via Trimesoyl; not fully specified (C-terminus, bridges); printed as bicyclo[Tm-(D-Phe-Fpa-D-Thr-Pip-Nal-Arg-Ala)-Dap-(Phe-Nal-Arg-Arg-Arg-Arg-Dap)]-Lys; also: FITC on C-terminal Lys side chain (FA labeling)
B19: peptide 14 (Table 18) (peptide)
peptide: Trimesoyl-P[Sar][dD][Pip′][2Nal]R[βAla][dA][Dap]F[2Nal]RRRR[Dap]K-NH2
modifications: linker (positions not given here) via Trimesoyl; not fully specified (some residues, bridges); printed as bicyclo[Tm-(Pro-Sar-D-Asp-Pip-Nal-Arg-β-Ala-D-Ala)-Dap-(Phe-Nal-Arg-Arg-Arg-Arg-Dap)]-Lys
B20: peptide 36 (Table 18) (peptide)
peptide: Trimesoyl-[D‑3‑Fpa][Phe(4-F)][dT][Pip′][2Nal]RA[dF][Dap]F[2Nal]RRRR[Dap]K
modifications: linker (positions not given here) via Trimesoyl; not fully specified (C-terminus, bridges); printed as bicyclo[Tm-(D-3-Fpa-Fpa-D-Thr-Pip-Nal-Arg-Ala-D-Phe)-Dap-(Phe-Nal-Arg-Arg-Arg-Arg-Dap)]-Lys

Target: Pin1 (Example 6, construct not stated) (human) (UniProt Q13526)
Test: fluorescence anisotropy

Kd [nM]	fold improvement of binding affinity against peptide 4 [fold]	fold increase of Pin1 inhibitory activity on substitution of D-Phe for D-Ala [fold]	Binder
3100	–	–	B1
460	–	–	B2
870	–	–	B3
4830	–	–	B4
1750	–	–	B5
980	–	–	B6
2360	–	–	B7
3420	–	–	B8
2170	–	–	B9
270	2	–	B10
480	–	2	B11
350	–	–	B12
590	–	–	B13
1380	–	–	B14
450	–	–	B15
240	–	–	B16
2490	–	–	B17
900	–	–	B18
1750	–	–	B19
390	–	–	B20
